22 molecules from patent publication US20260199463A1 (CENTURY THERAPEUTICS, published 2026) can be followed below.

The target in test [1] is T1, Nectin4-HIS protein (AcroBiosystems #NE4-H52H3) (UniProt Q96NY8 32-349).
T1 construct: Bought protein; also called Nectin4 protein; recombinant Nectin4-HIS protein; not shown: His tag
T1 sequence (looked up): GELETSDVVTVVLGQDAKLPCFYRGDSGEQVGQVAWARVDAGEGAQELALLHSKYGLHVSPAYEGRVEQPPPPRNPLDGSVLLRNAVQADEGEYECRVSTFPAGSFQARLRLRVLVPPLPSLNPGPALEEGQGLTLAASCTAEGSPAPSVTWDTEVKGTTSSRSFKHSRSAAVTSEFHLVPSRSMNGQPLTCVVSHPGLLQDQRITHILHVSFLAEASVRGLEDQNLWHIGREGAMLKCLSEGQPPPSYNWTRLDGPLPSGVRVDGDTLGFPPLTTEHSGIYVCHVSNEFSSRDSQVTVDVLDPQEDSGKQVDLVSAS
Nature of the test: ELISA, periplasmic extract on plate-bound Nectin4 (1 ug/mL), anti-Flag:HRP detection. Here is the method:
ELISA: 8 Maxisorp plates were coated with 100 uL/well Nectin4 at 1 ug/mL overnight at 4° C. Plates were emptied, and 200 uL/well SuperBlock was added to all plates, and incubated for 1 hour at RT. The plate was washed 1× with TBST on the Aquamax plate washer. 60 μL of anti-Flag:HRP (1:10,000 in PBS-T with 1:10 Superblock) was added per well to a V-bottom plate for each library screening plate. 60 uL/well PPE was added per well to the V-bottom plates and incubated for 1 hour at RT. 50 μL of the PPE/Anti-Flag mix was transferred to each ELISA plate and incubated for 1 hour at RT. The plate was washed 3× with TBST on the Aquamax plate washer. 50 uL/well TMB Ultra solution was added and incubated at RT for 30 minutes, until the wells appeared blue. 50 uL/well stop solution was added and absorbance at 450 nm was read on the Spectramax i3× plate reader. 54 unique clones were identified from the two libraries. A subset of 20 clones was selected from V2S and V2 M for cloning into P201 (SEQ ID Nos. 111-130).
In general terms: In an ELISA, binding on a coated surface is turned into a signal by an enzyme label.

The target in test [2] is T1, Nectin4-HIS protein (AcroBiosystems …). In words: flow cytometry, Nectin4-HIS at 2 ug/ml on CAR-transduced Nurkat cells.

B1: NEC_M_8 (VHH)
VHH: EVQLLESGGGLVQPGGSLRLSCAASGFTFSSYAMGWYRQAPGKEREFVSSISGSGGLTRYADSVKGRFTISRDNSKNTLYLQMNSLKPEDTAVYYCAVTTGYQGGVYDYWGQGTQVTVSS
notes: Periplasmic extract (PPE) of a panning clone
Take B1: the binding result in test [1] was “binds”.

B2: NEC_M_44 (VHH)
VHH: EVQLLESGGGLVQPGGSLRLSCAASGRTLSSYAMGWYRQAPGKERELVSSISGSGGSTRYADSVKGRFTISRDNSKNTLYLQMNSLKPEDTAVYYCAVYILELAPGAEYWGQGTQVTVSS
notes: as for B1
Regarding B2, the binding result in test [1] was “binds”.

B3: NEC_M_82 (VHH)
VHH: EVQLLESGGGLVQPGGSLRLSCAASGFTYSDYAMGWYRQAPGKERELVSAISSYGGVTNYADSVKGRFTISRDNSKNTLYLQMNSLKPEDTAVYYCAAYGALSIRGYDYWGQGTQVTVSS
notes: as for B1
On to B3, for which the binding result in test [1] is “binds”.

B4: NEC_S_5 (VHH)
VHH: EVQLLESGGGLVQPGGSLRLSCAASGLTFRYNAMGWYRQAPGKEREFVSAISGSGGGTYYADSVKGRFTISRDNSKNTLYLQMNSLKPEDTAVYYCAAEGLYDYWGQGTQVTVSS
notes: as for B1
With B4, the binding result in test [1] is listed as “binds”.

B5: NEC_M_5 (VHH)
VHH: EVQLLESGGGLVQPGGSLRLSCAASGLSFSSYSMGWYRQAPGKEREFVSAISGSSGSTNYADSVKGRFTISRDNSKNTLYLQMNSLKPEDTAVYYCAAEHRVTTSGVFYDYWGQGTQVTVSS
notes: as for B1
For the molecule B5, the binding result in test [1] is listed as “binds”.

B6: NEC_M_17 (VHH)
VHH: EVQLLESGGGLVQPGGSLRLSCAASGFTYSGYAMGWYRQAPGKERELVSSISGSGTLTSYADSVKGRFTISRDNSKNTLYLQMNSLKPEDTAVYYCDVDIPVGDATTVGDYWGQGTQVTVSS
notes: as for B1
For B6, the binding result in test [1] is “binds”.

B7: MARS SP_NEC_M_46_P3110_CD8 Hinge_CD28 tm_41BB_CD3Z (other)
chain: EVQLLESGGGLVQPGGSLRLSCAASGYTFSDYAMGWYRQAPGKERELVSSISGSGGSTRYADSVKGRFTISRDNSKNTLYLQMNSLKPEDTAVYYCAAVIRQPSTGFYEYWGQGTQVTVSSTTTPAPRPPTPAPTIASQPLSLRPEACRPAAGGAVHTRGLDFACDFWVLVVVGGVLACYSLLVTVAFIIFWVKRGRKKLLYIFKQPFMRPVQTTQEEDGCSCRFPEEEEGGCELRVKFSRSADAPAYQQGQNQLYNELNLGRREEYDVLDKRRGRDPEMGGKPRRKNPQEGLYNELQKDKMAEAYSEIGMKGERRRGKGHDGLYQGLSTATKDTYDALHMQALPPR
notes: Chimeric antigen receptor on transduced Nurkat cells or primary T cells
In the case of B7, the binding result in test [2] was “binds”.

B8: NEC_S_16 (VHH)
VHH: EVQLLESGGGLVQPGGSLRLSCAASGFTFSDYYMGWYRQAPGKEREFVSAISSTGGSPYYADSVKGRFTISRDNSKNTLYLQMNSLKPEDTAVYYCAVEVPYDYWGQGTQVTVSS
notes: as for B1
On to B8, for which the binding result in test [1] was “binds”.

B9: NEC_S_64 (VHH)
VHH: EVQLLESGGGLVQPGGSLRLSCAASGFAYSSYYMGWYRQAPGKEREFVSAISSSGGGTYYADSVKGRFTISRDNSKNTLYLQMNSLKPEDTAVYYCAVELTYNYWGQGTQVTVSS
notes: as for B1
As for B9, in test [1], the binding result is “binds”.

B10: MARS SP_NEC_M_8_P3107_CD8 Hinge_CD28 tm_41BB_CD3Z (other)
chain: EVQLLESGGGLVQPGGSLRLSCAASGFTFSSYAMGWYRQAPGKEREFVSSISGSGGLTRYADSVKGRFTISRDNSKNTLYLQMNSLKPEDTAVYYCAVTTGYQGGVYDYWGQGTQVTVSSTTTPAPRPPTPAPTIASQPLSLRPEACRPAAGGAVHTRGLDFACDFWVLVVVGGVLACYSLLVTVAFIIFWVKRGRKKLLYIFKQPFMRPVQTTQEEDGCSCRFPEEEEGGCELRVKFSRSADAPAYQQGQNQLYNELNLGRREEYDVLDKRRGRDPEMGGKPRRKNPQEGLYNELQKDKMAEAYSEIGMKGERRRGKGHDGLYQGLSTATKDTYDALHMQALPPR
notes: as for B7
Regarding B10, the binding result in test [2] is given as “binds”.

B11: NEC_S_11 (VHH)
VHH: EVQLLESGGGLVQPGGSLRLSCAASGLTSSGYAMGWYRQAPGKERELVSSISSSGGLTHYADSVKGRFTISRDNSKNTLYLQMNSLKPEDTAVYYCDADIAYTGADYWGQGTQVTVSS
notes: as for B1
For B11, the binding result in test [1] is given as “binds”.

B12: MARS SP_NEC_M_5_P3106_CD8 Hinge_CD28 tm_41BB_CD3Z (other)
chain: EVQLLESGGGLVQPGGSLRLSCAASGLSFSSYSMGWYRQAPGKEREFVSAISGSSGSTNYADSVKGRFTISRDNSKNTLYLQMNSLKPEDTAVYYCAAEHRVTTSGVFYDYWGQGTQVTVSSTTTPAPRPPTPAPTIASQPLSLRPEACRPAAGGAVHTRGLDFACDFWVLVVVGGVLACYSLLVTVAFIIFWVKRGRKKLLYIFKQPFMRPVQTTQEEDGCSCRFPEEEEGGCELRVKFSRSADAPAYQQGQNQLYNELNLGRREEYDVLDKRRGRDPEMGGKPRRKNPQEGLYNELQKDKMAEAYSEIGMKGERRRGKGHDGLYQGLSTATKDTYDALHMQALPPR
notes: as for B7
As for B12, in test [2], the binding result is “binds”.

B13: NEC_M_21 (VHH)
VHH: EVQLLESGGGLVQPGGSLRLSCAASGLTFSSNAMGWYRQAPGKERELVSSISGSGGSTNYADSVKGRFTISRDNSKNTLYLQMNSLKPEDTAVYYCAAEIATYYDFADYWGQGTQVTVSS
notes: as for B1
Turning to B13, the binding result in test [1] is on record as “binds”.

B14: NEC_M_84 (VHH)
VHH: EVQLLESGGGLVQPGGSLRLSCAASGFAFSIDAMGWYRQAPGKEREGVSSISGSGGLTRYADSVKGRFTISRDNSKNTLYLQMNSLKPEDTAVYYCDTAVLTGYSEAFDYWGQGTQVTVSS
notes: as for B1
For the molecule B14, the binding result in test [1] is “binds”.

B15: MARS SP_NEC_M_44_P3109_CD8 Hinge_CD28 tm_41BB_CD3Z (other)
chain: EVQLLESGGGLVQPGGSLRLSCAASGRTLSSYAMGWYRQAPGKERELVSSISGSGGSTRYADSVKGRFTISRDNSKNTLYLQMNSLKPEDTAVYYCAVYILELAPGAEYWGQGTQVTVSSTTTPAPRPPTPAPTIASQPLSLRPEACRPAAGGAVHTRGLDFACDFWVLVVVGGVLACYSLLVTVAFIIFWVKRGRKKLLYIFKQPFMRPVQTTQEEDGCSCRFPEEEEGGCELRVKFSRSADAPAYQQGQNQLYNELNLGRREEYDVLDKRRGRDPEMGGKPRRKNPQEGLYNELQKDKMAEAYSEIGMKGERRRGKGHDGLYQGLSTATKDTYDALHMQALPPR
notes: as for B7
For B15, in test [2], the binding result is “binds”.

B16: NEC_M_46 (VHH)
VHH: EVQLLESGGGLVQPGGSLRLSCAASGYTFSDYAMGWYRQAPGKERELVSSISGSGGSTRYADSVKGRFTISRDNSKNTLYLQMNSLKPEDTAVYYCAAVIRQPSTGFYEYWGQGTQVTVSS
notes: as for B1
On to B16, for which, in test [1], the binding result was “binds”.

B17: NEC_S_2 (VHH)
VHH: EVQLLESGGGLVQPGGSLRLSCAASGSTFSSNAMGWYRQAPGKERELVSSISGSGGSTRYADSVKGRFTISRDNSKNTLYLQMNSLKPEDTAVYYCASYVLYLREYWGQGTQVTVSS
notes: as for B1
With B17, the binding result in test [1] is recorded as “binds”.

B18: NEC_M_29 (VHH)
VHH: EVQLLESGGGLVQPGGSLRLSCAASGFTYTSYVMGWYRQAPGKERELVSAIYGSAGSGYYADSVKGRFTISRDNSKNTLYLQMNSLKPEDTAVYYCARVTTTTHLWSAEYWGQGTQVTVSS
notes: as for B1
B18: in test [1], the binding result is listed as “binds”.

B19: NEC_S_55 (VHH)
VHH: EVQLLESGGGLVQPGGSLRLSCAASGFTLSSYAMGWYRQAPGKERELVSSISGSGGSTRYADSVKGRFTISRDNSKNTLYLQMNSLKPEDTAVYYCAAYIGGDYLGQGTQVTVSS
notes: as for B1
As for B19, the binding result in test [1] was “binds”.

B20: NEC_S_31 (VHH)
VHH: EVQLLESGGGLVQPGGSLRLSCAASGFTYSSYAMGWYRQAPGKERELVSSISGSGGSTRYADSVKGRFTISRDNSKNTLYLQMNSLKPEDTAVYYCAVAIGVGDYWGQGTQVTVSS
notes: as for B1
Consider B20, for which, in test [1], the binding result was “binds”.

B21: NEC_S_56 (VHH)
VHH: EVQLLESGGGLVQPGGSLRLSCAASGLTLSSYAMGWFRQAPGKERELVSSISGSGGSTRYADSVKGRFTISRDNSKNTLYLQMNSLKPEDTAVYYCAVDIRLTDYWGQGTQVTVSS
notes: as for B1
With B21, the binding result in test [1] is “binds”.

B22: NEC_M_66 (VHH)
VHH: EVQLLESGGGLVQPGGSLRLSCAASGFAYSSYSIGWYRQAPGKERELVSAISGSGGSSRYADSVKGRFTISRDNSKNTLYLQMNSLKPEDTAVYYCAAIAYVYTSTARNYWGQGTQVTVSS
notes: as for B1
Regarding B22, in test [1], the binding result is recorded as “binds”.
